In article PMC10194908 (PLOS ONE, 2023):

Columns and labels:
[1] = molecular target: NS1 secreted from Vero cells infected with DENV-3-VN32/96 (Dengue virus 3, strain VN32/96 (paper: …, strain)); test: ELISA; conditions: one partner purified
[2] = molecular target: T1, Recombinant NS1 from DENV-3-Sri Lanka D3/H/IMTSSA-SRI/2000/1266 (dengue virus serotype 3 (Sri Lanka …, UniProt Q6YMS4)); test: ELISA; conditions: both partners purified
T1 construct: also called DENV-3 NS1

[3] = molecular target: NS1 secreted from Vero cells infected with DENV-4-2641Y08 (Dengue virus type 4, strain 2641Y08 …, UniProt F8TEL4, strain); test: ELISA; conditions: one partner purified
[4] = molecular target: NS1 secreted from Vero cells infected with DENV-3-CHD94-089 (Dengue virus 3, strain CHD94-089 …, strain); test: ELISA; conditions: one partner purified
[5] = molecular target: NS1 secreted from Vero cells infected with DENV-2-TSV01 (Dengue virus type 2, strain TSV01 …, UniProt Q91H74, strain); test: ELISA; conditions: one partner purified
[6] = molecular target: NS1 secreted from Vero cells infected with DENV-2-D2Y98P (Dengue virus type 2, strain D2Y98P …, UniProt F8TRW4, strain); test: ELISA; conditions: one partner purified
[7] = molecular target: NS1 secreted from Vero cells infected with DENV-4-TVP360 (Dengue virus type 4, strain TVP360 …, UniProt D2KQW6, strain); test: ELISA; conditions: one partner purified
[8] = molecular target: T2, Recombinant NS1 from DENV-4-Dominica/814669/1981 (dengue virus serotype 4 …, UniProt P09866); test: BLI; conditions: both partners purified
T2 construct: also called DENV-4 NS1

[9] = molecular target: T1, Recombinant NS1 from DENV-3-Sri Lanka …; test: immunoblot; conditions: both partners purified
[10] = molecular target: T2, Recombinant NS1 from …; test: immunoblot; conditions: both partners purified
Target sequence in this assay (P09866 775-1126): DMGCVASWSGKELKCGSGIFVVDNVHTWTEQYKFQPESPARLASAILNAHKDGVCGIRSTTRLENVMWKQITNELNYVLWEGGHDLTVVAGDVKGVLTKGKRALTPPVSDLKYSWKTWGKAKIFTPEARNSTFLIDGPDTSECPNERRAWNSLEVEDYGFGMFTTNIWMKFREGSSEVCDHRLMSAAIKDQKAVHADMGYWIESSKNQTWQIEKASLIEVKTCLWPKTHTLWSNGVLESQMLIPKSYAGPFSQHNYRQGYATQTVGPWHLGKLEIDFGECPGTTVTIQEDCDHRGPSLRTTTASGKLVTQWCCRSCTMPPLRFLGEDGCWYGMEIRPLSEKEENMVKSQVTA

Measured: binding result

T1 sequence (Q6YMS4 774-1125): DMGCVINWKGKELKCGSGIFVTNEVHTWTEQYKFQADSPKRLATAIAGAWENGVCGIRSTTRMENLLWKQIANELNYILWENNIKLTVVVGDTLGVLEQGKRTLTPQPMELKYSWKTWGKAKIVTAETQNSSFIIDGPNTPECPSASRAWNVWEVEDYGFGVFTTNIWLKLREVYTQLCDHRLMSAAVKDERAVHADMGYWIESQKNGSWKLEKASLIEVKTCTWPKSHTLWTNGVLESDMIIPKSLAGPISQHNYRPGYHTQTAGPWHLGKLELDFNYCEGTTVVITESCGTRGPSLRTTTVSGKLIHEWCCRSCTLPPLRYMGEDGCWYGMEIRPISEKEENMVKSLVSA

B1: D8 (antibody, V domains shown)
VH: QVQLQESGPGLVKPSETLPLTCTVSGGSISNNGFYWGWIRQPPGKGLEWIGNIYYRGSTYYNPSLNSRVTISVDTSKNQFSLQLNSVTAADTAVYYCARLGIQLWFAIDYWGQGTLVTVSS
VL: SVLTQPPAVSVALGQTVRITCQGDSLRSSYASWYQQKPGQAPVLIFYAKNNRPSGIPDRFSGSSSGNTASLTITGAQAEDEADYYCYSRDSSGNLWVFGGGTKLTVL
notes: also called D8-HRP; HRP-D8
not listed: [8] | [9] | [10]
binds: all other assays above

B2: A2 (antibody, V domains shown)
VH: QVQLQESGGGVVQPGRSLRLFCAASGFTFSAFSTYAIHWVRQAPGKGLEWVAVISYDANNKYYADSVKGRFTISRDNFKSTLFLQMNSLRAEDTAVYYCARDRSDSGYDSYYYYYGMDVWGQGTTVTVSS
VL: QSVVTQPPSVSAAPGQKVTISCSGSSSNIGRNYVSWYQHLPGTAPKLLIYDNNKRRSGIPDRFSGSKSDTTATLGITGLQTVDEADYYCGSWDNSLSAYVFGTGTKVTV
notes: also called A2-HRP
binds: [8] | [9]

B3: D6 (antibody, V domains shown)
VH: EVQLVQSGGGLVQPGRSLRLSCAASGFTFQDYAMHWVRQAPGKGLEWVSGIGRDSGTIDYADSVKGRFTISRDNAKNSLYLQMNSLRAEDTALYYCAKISNGYRPDNWGQGTLVTVSS
VL: VLTQPPSVSVSPGQTARITCSGDVLAKRYARWFQQKPGQAPVVVIYKDSERPSGIPERLSGSSSGTTVTLTISGAQVEDEADYYCYCAADNNVVFGGGTKLTVL
notes: also called D6-HRP; HRP-D6
binds: [10]
